Measured values published in PMC4384115, “Molecular Recognition of PTS-1 Cargo Proteins by Pex5p: Implications for Protein Mistargeting in Primary Hyperoxaluria” (Biomolecules, 2015).

Legend:
[1] = tested on: CHO cells; assay: Confocal immunofluorescence colocalization of AGT with mitochondria (Mitotracker) in transfected CHO cells; assay type: cell-based, Chinese hamster; settings: transiently transfected CHO cells; for Pearson Rr, AGT + Mitotracker: fixed 72 h after transfection, mean ± S.E.
Experimental: (§1) Chinese hamster ovary (CHO) cells (ATTC, Rockville, MD USA) were grown in alpha-minimal essential medium (α-MEM, Lonza, Köln, Germany) supplemented with glutamine, penicillin/streptomycin and 5% fetal bovine serum. Cell transfections were performed using AGT cDNA variants (AGT-LRM or AGT-LRM-SKL) subcloned in pCIneo plasmids (Promega) with Transfast reagent (Promega, Madison, WI, USA), following manufacturer’s guidelines. After 24 h, cells were passed to plates containing 13 mm glass coverslips for immunofluorescence studies. Mitochondria in half the coverslips were labeled by incubation with Mitotracker (CMXRos, Invitrogen, Carlsbad, CA, USA) at the end of the culture. Cells were fixed with 2% paraformaldehyde 72 h after transfection and immunofluorescence was performed as previously described. Images were acquired with a laser scanning confocal microscope (Olympus Inverted IX81, Tokyo, Japan) using a 60× objective with immersion oil.
(§2) For quantitative immune-colocalization, the system was optimized to detect two fluorescent signals in one specimen: one in the green channel detector for protein of interest AGT-LRM or AGT-LRM-SKL and the other in the red channel, for either mitochondria labeled with mitotracker or peroxisomes labeled with peroxisomal membrane protein 70 (PMP70) antibody. When the two were seen to overlap (colocalization), it was assumed to be due to fluorescently labeled molecules binding to very close or indeed identical spatial positions. Colocalization events (or the lack thereof) were analyzed quantitatively with FluoView software (Olympus, Tokyo, Japan) and ImageJ software (NIH, Bethesda, MD, USA) with the JACoP plugin, based on a global statistic approach that conducts an intensity correlation coefficient-based examination. The Fisher transformation was applied to data obtained from ImageJ as well when calculating the mean values of colocalization coefficients and constructing the respective 95% confidence intervals. Descriptive statistical analysis of colocalization parameters (Pearson’s coefficient, Manders’ overlap coefficient and split Manders’ coefficients) was performed.

[2] = tested on: CHO cells; assay: Confocal immunofluorescence colocalization of AGT with peroxisomes (PMP70) in transfected CHO cells; assay type: cell-based, Chinese hamster; settings: for amount of protein localized in peroxisomes / Pearson Rr, AGT + PMP70: transiently transfected CHO cells; for Pearson Rr, AGT + PMP70: fixed 72 h after transfection
Experimental: as §1, §2

Molecule | colocalization with mitotracker in the mitochondria [1] | Pearson Rr, AGT + Mitotracker [1] | Pearson Rr, AGT + Mitotracker ([1]; SEM) | % Coloc (Manders' m), AGT + PMP70 ([2]; CHO cells, mean ± S.E., given as fraction, split Manders' M1 in situation 2, Manders' overlap R in situation 4, SEM) | amount of protein localized in peroxisomes [2] | Pearson Rr, AGT + PMP70 ([2]; mean ± S.E.) | Pearson Rr, AGT + PMP70 ([2]; mean ± S.E., SEM)
AGT-LRM: human AGT variant p.P11L/p.G170R/p.I340M, mistargeting PH1 variant (protein, UniProt P21549 1-392, looked up, variant P11L G170R I340M) Alanine--glyoxylate …: MASHKLLVTPLKALLKPLSIPNQLLLGPGPSNLPPRIMAAGGLQMIGSMSKDMYQIMDEIKEGIQYVFQTRNPLTLVISGSGHCALEAALVNVLEPGDSFLVGANGIWGQRAVDIGERIGARVHPMTKDPGGHYTLQEVEEGLAQHKPVLLFLTHGESSTGVLQPLDGFRELCHRYKCLLLVDSVASLGGTPLYMDRQGIDILYSGSQKALNAPPGTSLISFSDKAKKKMYSRKTKPFSFYLDIKWLANFWGCDDQPRMYHHTIPVISLYSLRESLALIAEQGLENSWRQHREAAAYLHGRLQALGLQLFVKDPALRLPTVTTVAVPAGYDWRDIVSYVMDHFDIEIMGGLGPSTGKVLRIGLLGCNATRENVDRVTEALRAALQHCPKKKL | 92% | 0.90 | 0.90 ± 0.12 | 0.17 ± 0.15 | 17% | 0.39 | 0.39 ± 0.15
AGT-LRM-SKL: AGT-LRM with PTS1 mutated to the consensus –SKL C-terminal tripeptide (protein, UniProt P21549 1-392, looked up, variant P11L G170R I340M K390S L392L) Alanine--glyoxylate …: MASHKLLVTPLKALLKPLSIPNQLLLGPGPSNLPPRIMAAGGLQMIGSMSKDMYQIMDEIKEGIQYVFQTRNPLTLVISGSGHCALEAALVNVLEPGDSFLVGANGIWGQRAVDIGERIGARVHPMTKDPGGHYTLQEVEEGLAQHKPVLLFLTHGESSTGVLQPLDGFRELCHRYKCLLLVDSVASLGGTPLYMDRQGIDILYSGSQKALNAPPGTSLISFSDKAKKKMYSRKTKPFSFYLDIKWLANFWGCDDQPRMYHHTIPVISLYSLRESLALIAEQGLENSWRQHREAAAYLHGRLQALGLQLFVKDPALRLPTVTTVAVPAGYDWRDIVSYVMDHFDIEIMGGLGPSTGKVLRIGLLGCNATRENVDRVTEALRAALQHCPKSKL | 40% | 0.47 | – | – | 84% | 0.79 | –
